In publication PMC11047111 (Proceedings of the National Academy of Sciences of the …, 2024):
Positions count from the first letter of the chain named. Numbers in names are those of the source.

B1: KCTD5 (natural protein)
chain: MAENHCELLSPARGGIGAGLGGGLCRRCSAGLGALAQRPGSVSKWVRLNVGGTYFLTTRQTLCRDPKSFLYRLCQADPDLDSDKDETGAYLIDRDPTYFGPVLNYLRHGKLVINKDLAEEGVLEEAEFYNITSLIKLVKDKIRERDSKTSQVPVKHVYRVLQCQEEELTQMVSTMSDGWKFEQLVSIGSSYNYGNEDQAEFLCVVSKELHNTPYGTASEPSEKAKILQERGSRM
B2: KCTD5 L161R (natural protein)
chain: B1 chain with L161R

Columns and labels:
SEC = molecular target: the molecule itself; assay: SEC
[1] = molecular target: CUL3^NTD (N-terminal domain of cullin 3, residues 1 to 381) (UniProt Q13618 1-381); assay: BLI
Chain of CUL3^NTD (N-terminal domain of cullin 3, residues 1 to 381) (Q13618 1-381): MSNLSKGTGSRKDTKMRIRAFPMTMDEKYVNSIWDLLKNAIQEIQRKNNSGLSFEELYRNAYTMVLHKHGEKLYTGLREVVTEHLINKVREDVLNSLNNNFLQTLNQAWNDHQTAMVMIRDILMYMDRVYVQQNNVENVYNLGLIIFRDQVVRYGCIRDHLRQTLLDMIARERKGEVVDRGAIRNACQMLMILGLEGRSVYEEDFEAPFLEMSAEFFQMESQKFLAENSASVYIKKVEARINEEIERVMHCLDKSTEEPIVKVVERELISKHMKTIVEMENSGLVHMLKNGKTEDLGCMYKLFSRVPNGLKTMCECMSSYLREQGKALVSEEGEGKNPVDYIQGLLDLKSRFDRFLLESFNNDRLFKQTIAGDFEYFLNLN

| Binder | stoichiometry N (SEC) | binding result [1] |
| --- | --- | --- |
| B1 | 5 |  |
| B2 |  | binds |
